The RNAGym collection of RNA variant scans (doi:10.7554/elife.90254)

B1: LINE1-full (parent)
chain: UACGUAGGUGGUUUUCCCCUGAUAGUGCUAAGGGGGCCUGGAAGUUUGGACUGGGCAGAGCUCAACACAGCGUGGCAAAGUGGCUGUGGCUAGACUGCCUCUCUGGAUUCCUCGUCACUCAGCAGGGCAUCUCUGAGAGAAAUGCC

Variants of: B1
Test: self-cleavage, relative activity (ratio to wild type); higher = more cleavage; in vitro, sequencing; the parent is a self-cleaving ribozyme
Variant G33A A121G has a self-cleavage of 1.28.
G32A G89U showed a self-cleavage of 0.04.
With G32A A138G the self-cleavage was 1.16.
A31U U143A gave a self-cleavage of 0.78.
G33A C56U gave a self-cleavage of 0.35.
Variant G32A C113U has a self-cleavage of 1.43.
G33A A117G gave a self-cleavage of 1.91.
Work on G32C U108C yielded a self-cleavage of 1.55.
A31U G144U showed a self-cleavage of 1.03.
Work on A31U G144A yielded a self-cleavage of 0.96.
Variant G32A U119C has a self-cleavage of 1.29.
Variant A31U U112A has a self-cleavage of 1.8.
With A31U A141G the self-cleavage was 1.01.
G32A A67U showed a self-cleavage of 0.09.
In the case of G33A A50G, the self-cleavage is reported as 1.02.
For G32U U62C, the self-cleavage was 0.06.
In the case of G33A A136U, the self-cleavage is reported as 1.69.
In the case of G33A U45A, the self-cleavage is reported as 0.86.
G33C C128U showed a self-cleavage of 0.92.
Work on A31U G32A yielded a self-cleavage of 1.56.
With A31U A78G the self-cleavage was 0.94.
In the case of A31U A78U, the self-cleavage is reported as 1.57.
A31U A138G gave a self-cleavage of 1.26.
For A31U U134A, the self-cleavage was 0.9.
Variant A31U U134C has a self-cleavage of 1.2.
With G32U A77C the self-cleavage was 1.31.
For G32U A77G, the self-cleavage was 3.
With A31U U102A the self-cleavage was 1.91.
A31U U102C showed a self-cleavage of 1.05.
G32U A94G showed a self-cleavage of 0.2.
G32U U130A showed a self-cleavage of 1.7.
Work on G32A U52A yielded a self-cleavage of 1.28.
Variant G32A A65U has a self-cleavage of 0.1.
For G32A A65G, the self-cleavage was 0.11.
For G33A A138G, the self-cleavage was 1.36.
G32C A141G gave a self-cleavage of 1.99.
For A31U U81C, the self-cleavage was 0.75.
In the case of G32A A43G, the self-cleavage is reported as 1.25.
In the case of G32U A117G, the self-cleavage is reported as 1.13.
Variant G32A U102C has a self-cleavage of 1.62.
With G32A A140G the self-cleavage was 1.61.
In the case of G33A A57G, the self-cleavage is reported as 0.56.
Work on A31U A129G yielded a self-cleavage of 1.25.
G32C A142G gave a self-cleavage of 1.58.
With G33C A59G the self-cleavage was 0.
For G32U U85A, the self-cleavage was 0.09.
Work on G32U U85C yielded a self-cleavage of 0.17.
Variant A31U G34A has a self-cleavage of 0.56.
With G32U A78G the self-cleavage was 0.94.
Work on G32A G97U yielded a self-cleavage of 0.1.
G32A U81A gave a self-cleavage of 1.46.
G32A U81G gave a self-cleavage of 1.36.
With G33A U102A the self-cleavage was 0.64.
In the case of A31U G70A, the self-cleavage is reported as 0.26.
Work on A31U A79U yielded a self-cleavage of 2.19.
A31U A79G gave a self-cleavage of 0.55.
With G33A A77U the self-cleavage was 1.47.
A31U C37A showed a self-cleavage of 1.53.
Variant G32C G60U has a self-cleavage of 0.02.
A31U A67U gave a self-cleavage of 0.3.
With G32A A124U the self-cleavage was 0.
G32A A124G showed a self-cleavage of 0.69.
For A31U C110A, the self-cleavage was 0.91.
G33A U115C gave a self-cleavage of 1.48.
In the case of G33A C76U, the self-cleavage is reported as 1.87.
G32A U87A gave a self-cleavage of 0.03.
For A31U C51G, the self-cleavage was 1.4.
Work on G32A U62A yielded a self-cleavage of 0.08.
Variant G32A U62C has a self-cleavage of 0.07.
G32C U45C showed a self-cleavage of 1.
A31U U130A gave a self-cleavage of 1.53.
A31U U100G showed a self-cleavage of 1.23.
A31U U100C gave a self-cleavage of 1.41.
A31U U100A gave a self-cleavage of 0.67.
In the case of A31U A77U, the self-cleavage is reported as 0.96.
With G32C U115C the self-cleavage was 1.56.
A31U C63G gave a self-cleavage of 0.
Variant A31U C145A has a self-cleavage of 1.65.
Work on G32C U81C yielded a self-cleavage of 0.55.
For G32C U81A, the self-cleavage was 1.9.
Work on A31U A65G yielded a self-cleavage of 0.16.
In the case of A31U A65U, the self-cleavage is reported as 0.21.
G32C A59U gave a self-cleavage of 0.78.
Work on G32A U85A yielded a self-cleavage of 0.14.
G32A U85C gave a self-cleavage of 0.16.
G32U A121U showed a self-cleavage of 0.
With A31U U108C the self-cleavage was 1.3.
G32U showed a self-cleavage of 0.98.
G32C showed a self-cleavage of 1.23.
For G32A, the self-cleavage was 1.23.
Variant G33A U109C has a self-cleavage of 1.05.
G32U C116U gave a self-cleavage of 1.15.
A31U C61A gave a self-cleavage of 0.13.
G33C A69G gave a self-cleavage of 0.58.
Variant A31U U104C has a self-cleavage of 1.3.
G32A A92U gave a self-cleavage of 0.75.
G32C G35A showed a self-cleavage of 1.16.
A31U A136G showed a self-cleavage of 0.79.
With G33C A121G the self-cleavage was 0.21.
Work on G33A U96C yielded a self-cleavage of 0.12.
G32A A107U gave a self-cleavage of 1.27.
Work on G32A A107C yielded a self-cleavage of 1.91.
G32A A136G gave a self-cleavage of 1.35.
In the case of G32A A136U, the self-cleavage is reported as 0.45.
In the case of G33C A129U, the self-cleavage is reported as 1.69.
G32U U119A gave a self-cleavage of 0.
G32A U134C showed a self-cleavage of 1.22.
With G32A C71U the self-cleavage was 0.91.
G32C A77U gave a self-cleavage of 0.81.
A31U U119A gave a self-cleavage of 1.17.
A31U U91C gave a self-cleavage of 0.38.
G32U A79G gave a self-cleavage of 0.97.
A31U U85C gave a self-cleavage of 0.28.
Work on A31U U85A yielded a self-cleavage of 0.07.
With A31U A142G the self-cleavage was 0.78.
With G32U A50G the self-cleavage was 0.69.
G32C U100C gave a self-cleavage of 2.13.
Variant G32U U73C has a self-cleavage of 1.1.
Work on G33A A141G yielded a self-cleavage of 1.01.
In the case of A31U G125U, the self-cleavage is reported as 1.37.
G33A U87C gave a self-cleavage of 0.2.
With G33C A65G the self-cleavage was 0.
With G32U A42G the self-cleavage was 1.07.
With G32A C84U the self-cleavage was 0.21.
Work on A31U C101U yielded a self-cleavage of 0.58.
With A31U A117G the self-cleavage was 1.2.
Variant A31U A117U has a self-cleavage of 0.95.
With A31U U87C the self-cleavage was 0.24.
With G32A U96C the self-cleavage was 0.13.
For G33A U91A, the self-cleavage was 0.59.
A31U U132C showed a self-cleavage of 1.39.
Variant G32U U52A has a self-cleavage of 1.85.
Work on G32A U73C yielded a self-cleavage of 1.49.
In the case of G33A A142G, the self-cleavage is reported as 1.2.
In the case of G32A A142G, the self-cleavage is reported as 1.22.
G32A A57U gave a self-cleavage of 0.16.
In the case of G32U U39A, the self-cleavage is reported as 1.06.
G32A U143C gave a self-cleavage of 1.4.
Work on G33C A79G yielded a self-cleavage of 1.78.
G32A A42G showed a self-cleavage of 1.27.
With G32A U132C the self-cleavage was 2.03.
In the case of G33A A43G, the self-cleavage is reported as 1.29.
With G32A U39A the self-cleavage was 1.66.
With A31U U47A the self-cleavage was 0.77.
A31U A140U showed a self-cleavage of 0.94.
A31U A140G gave a self-cleavage of 0.81.
Work on A31U A69G yielded a self-cleavage of 0.75.
With G32A A94G the self-cleavage was 0.36.
With G32A G75C the self-cleavage was 0.65.
Work on G33C A117U yielded a self-cleavage of 0.85.
With A31U G36U the self-cleavage was 0.81.
G32A A78G showed a self-cleavage of 0.47.
Variant A31U U45C has a self-cleavage of 1.17.
A31U U45A showed a self-cleavage of 0.9.
Work on A31U U115A yielded a self-cleavage of 1.08.
Work on A31U U46C yielded a self-cleavage of 1.05.
A31U U39A showed a self-cleavage of 1.05.
Work on A31U G82U yielded a self-cleavage of 0.74.
A31U U73C gave a self-cleavage of 1.51.
G32U G83U showed a self-cleavage of 0.6.
In the case of G33A A107G, the self-cleavage is reported as 1.52.
In the case of G33A U132C, the self-cleavage is reported as 1.47.
G32A U47C gave a self-cleavage of 1.58.
G32A U47A gave a self-cleavage of 1.37.
Work on G32U U102C yielded a self-cleavage of 1.13.
In the case of G32C A78G, the self-cleavage is reported as 0.73.
Work on A31U C131U yielded a self-cleavage of 1.06.
